Biological target: VISTA (analyte in the BLI assay with VSIG-3) (Homo sapiens (Human)) (UniProt Q9H7M9)
Assay: BLI (Octet QK384), 100 nM Fc-tagged VSIG-3 on anti-human Fc biosensor, VISTA from 3000 nM in solution

Substance: Fc-tagged VSIG-3 (from UniProt Q5DX21 23-241) (Fc fusion)
- Kd: 5.28 µM

Reference: US20240158538A1
